These results are taken from article PMC7072298.

The target of assay [1] is HSP90αM domain (solid phase assays of Figure 2B and 2C). Description: ELISA; solid phase protein–protein interaction assay, dose-dependent; HSP90M domain (100 µg/mL) coated on plate, FN 30, 45, 70 and 120 kDa fragments at varying concentrations in solution. (In general: ELISA stands for enzyme-linked immunosorbent assay.)
In assay [2] the target is glucocorticoid receptor LBD (Homo sapiens) (UniProt P04150). As to conditions: cited from earlier work.
The target of the next assay is Tau (Homo sapiens) (UniProt P10636). As to conditions: cited from earlier work.
Sequence of Tau (Homo sapiens) (P10636 2-758): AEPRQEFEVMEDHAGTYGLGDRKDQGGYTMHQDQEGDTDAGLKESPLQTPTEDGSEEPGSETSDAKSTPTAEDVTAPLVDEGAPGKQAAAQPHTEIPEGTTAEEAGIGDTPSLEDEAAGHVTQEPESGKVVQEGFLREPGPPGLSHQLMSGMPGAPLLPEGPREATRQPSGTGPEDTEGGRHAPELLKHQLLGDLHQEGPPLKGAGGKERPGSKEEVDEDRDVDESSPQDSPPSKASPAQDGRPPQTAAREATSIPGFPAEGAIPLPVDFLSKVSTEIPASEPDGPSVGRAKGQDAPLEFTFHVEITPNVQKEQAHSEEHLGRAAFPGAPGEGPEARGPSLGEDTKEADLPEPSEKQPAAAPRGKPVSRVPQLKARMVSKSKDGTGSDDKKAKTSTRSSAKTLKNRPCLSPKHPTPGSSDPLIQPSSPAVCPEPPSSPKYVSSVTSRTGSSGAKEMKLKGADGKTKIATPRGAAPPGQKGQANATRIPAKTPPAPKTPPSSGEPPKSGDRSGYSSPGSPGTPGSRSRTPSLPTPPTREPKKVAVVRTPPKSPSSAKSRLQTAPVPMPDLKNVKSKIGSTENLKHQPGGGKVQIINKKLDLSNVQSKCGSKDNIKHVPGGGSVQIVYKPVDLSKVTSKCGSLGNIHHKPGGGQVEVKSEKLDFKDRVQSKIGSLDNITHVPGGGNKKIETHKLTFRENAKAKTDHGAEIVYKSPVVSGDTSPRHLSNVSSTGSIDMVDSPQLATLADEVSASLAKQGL

Sequence of glucocorticoid receptor LBD (Homo sapiens) (P04150 523-777): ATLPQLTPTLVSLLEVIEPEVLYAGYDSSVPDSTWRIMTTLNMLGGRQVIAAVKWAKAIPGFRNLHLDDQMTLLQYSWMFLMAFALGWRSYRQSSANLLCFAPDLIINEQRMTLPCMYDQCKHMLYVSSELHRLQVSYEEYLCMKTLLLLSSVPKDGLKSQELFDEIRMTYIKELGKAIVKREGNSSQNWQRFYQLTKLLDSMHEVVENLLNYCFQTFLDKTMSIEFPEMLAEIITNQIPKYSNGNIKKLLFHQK

Consider “45-kDa gelatin-binding FN fragment (FN45) (domain or fragment)”, for which the Kd of FN45 relative to that of FN30 (fold higher) in assay [1] is 3 fold.
A word on the Kd: it is the concentration at which binding is half-saturated. The substance “70-kDa N-terminal FN fragment (FN70) (domain or fragment)” registered a Kd in assay [1] of 500 nM.
For HSP90 (from UniProt P02829), the Kd in assay [2] is 800 nM.
Regarding HSP90 (from UniProt P07900), the Kd with Tau (Homo sapiens) is 4800 nM.
Regarding “N-terminal FN 30-kDa heparin-binding fragment (FN30) (domain or fragment)”, in assay [1], the Kd was found to be 70 nM.
